Laboratory results published in patent publication US20220195064A1 (Memorial Sloan Kettering, published 2022).

Legend:
[1] = target: T1, recombinant extracellular domain of murine CD371 (Thr 67-Arg 267) with polyhistidine tag (murine, UniProt Q504P2 67-267); assay: phage ELISA, anti-M13 detection
T1 construct: range 67-267; also called mouse homolog of CD371; not shown: polyhistidine tag
T1 sequence (looked up): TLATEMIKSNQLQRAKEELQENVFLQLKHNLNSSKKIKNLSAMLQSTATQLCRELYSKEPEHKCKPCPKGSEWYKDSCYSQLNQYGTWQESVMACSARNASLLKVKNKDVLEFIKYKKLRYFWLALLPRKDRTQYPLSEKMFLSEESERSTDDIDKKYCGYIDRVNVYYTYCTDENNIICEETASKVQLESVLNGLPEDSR
Method: (§1) A proprietary naïve, semi-synthetic scFv phage display library was screened for antibodies that bind to the CD371 protein by using standard solid phase phage display panning techniques. Briefly, recombinant CD371 was immobilized on a polystyrene surface followed by blocking with about 5% milk and incubation with the phage library. Subsequent washing, elution and phage amplification steps were performed to complete each round of biopanning. Three rounds of panning were completed using amplified CD371 binder-enriched phage pools from the previous round of panning as input for subsequent rounds.

[2] = target: T2, human CD371 on the cell surface (OCI AML cells; HEK293 cells expressing human CD371) (human, UniProt Q5QGZ9 1-265); assay: flow cytometry of monoclonal phage prep on HEK293H cells transfected with human CD371 against wild type HEK293H; detection by anti-M13 mAb and PE anti-mouse
T2 construct: whole, on cells; The transfected construct is not specified further; also called CD371 cells; CD371+ AML cell line OCI
T2 sequence (looked up): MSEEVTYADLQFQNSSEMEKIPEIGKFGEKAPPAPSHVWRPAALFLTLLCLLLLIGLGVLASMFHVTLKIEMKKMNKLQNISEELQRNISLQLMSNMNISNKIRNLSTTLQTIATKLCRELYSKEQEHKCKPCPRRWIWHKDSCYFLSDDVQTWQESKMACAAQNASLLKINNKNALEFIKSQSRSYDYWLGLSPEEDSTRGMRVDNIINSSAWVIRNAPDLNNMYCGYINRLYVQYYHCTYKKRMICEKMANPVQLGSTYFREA
Method: Once selected, positive scFv clones are tested for their binding to CD371 (e.g., human CD371) on cell surfaces by flow cytometry. Briefly, phage clones are incubated with HEK293H cells over-expressing CD371. The cells are washed and then incubated with a M13 coat protein mAb. Cells are washed again and labeled with a PE-labeled anti-mouse Fab₂ prior to flow cytometry.

[3] = target: T3, recombinant soluble human CD371 extracellular domain (His 65-Ala 265) with polyhistidine tag (human, UniProt Q5QGZ9 65-265, biotinylated in the scFv BLI measurements (site not stated)); assay: phage ELISA on human CD371, anti-M13 detection
T3 construct: range 65-265; also called soluble CD371; recombinant CD371; not shown: polyhistidine tag
T3 sequence (looked up): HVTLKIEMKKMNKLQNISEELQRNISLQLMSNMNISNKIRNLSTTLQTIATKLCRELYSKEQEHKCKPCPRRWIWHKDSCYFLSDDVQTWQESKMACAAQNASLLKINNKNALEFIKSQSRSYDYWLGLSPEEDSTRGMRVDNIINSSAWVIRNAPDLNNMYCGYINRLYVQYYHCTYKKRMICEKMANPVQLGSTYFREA
Method: as §1

[4] = target: T3, recombinant soluble human CD371 …; assay: BLI, IgG captured with anti-Fc antibody, soluble CD371 as analyte
Description: (§2) Affinity measurements of the B10 variants determined by biolayer interferometry by capturing the IgG and Fc fusions with anti-Fc antibody, and using soluble CD371 as analyte. For scFv affinity measurements, biotinylated CD371 was captured with streptavidin, and soluble scFv was used as analyte. […] Consistent with the flow cytometry results, the full IgG and the scFv-Fc fusions bound more strongly than the scFvs (Table 8), presumably due to their bivalent interaction, resulting in an avidity effect. Weak binding of the 1B10 scFv in the VH-VL Orientation was observed but a dissociation constant could not be calculated by any curve fit method.

[5] = target: T3, recombinant soluble human CD371 …; assay: BLI, Fc fusion captured with anti-Fc antibody, soluble CD371 as analyte
Description: as §2

[6] = target: T3, recombinant soluble human CD371 …; assay: BLI, biotinylated CD371 captured with streptavidin, soluble scFv as analyte
Description: as §2

B1: B031_P1_PH1D6 monoclonal phage prep (scFv displayed on phage) (scFv, V domains shown)
VH: EVQLLESGGGLVQPGGSLRLSCAASGFTFTDYAMSWVRQAPGKGLEWVSDIDGSGGSTDYADSVKGRFTISRDNSKNTLYLQMNSLRAEDTAVYYCALELGATTVYWGQGTLVTVSS
VL: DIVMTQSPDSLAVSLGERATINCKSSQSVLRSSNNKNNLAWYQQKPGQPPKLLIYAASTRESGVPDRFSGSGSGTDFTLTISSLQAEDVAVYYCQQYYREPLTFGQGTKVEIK
notes: Tested as an scFv on M13 phage
- binding result [1]: no binding
- binding result [2]: binds
- binding result [3]: binds

B2: B10 reformatted to human IgG1 (antibody, V domains shown)
VH: EVQLLESGGGLVQPGGSLRLSCAASGFTFSDYQMSWVRQAPGKGLEWVSGIQGGGGSTYYADSVKGRFTISRDNSKNTLYLQMNSLRAEDTAVYYCAREMWRGDYYSGMDVWGQGTTVTVSS
VL: not shown
notes: Human IgG1; also called 1B10 IgG1; B031_P1_PH1B10 IgG1
- Kd [4]: 9.5 nM
- koff [4]: 0.00153 s⁻¹
- kon [4]: 160000 M⁻¹ s⁻¹

B3: B031_P1_PH1B10 monoclonal phage prep (scFv displayed on phage) (scFv, V domains shown)
VH: EVQLLESGGGLVQPGGSLRLSCAASGFTFSDYQMSWVRQAPGKGLEWVSGIQGGGGSTYYADSVKGRFTISRDNSKNTLYLQMNSLRAEDTAVYYCAREMWRGDYYSGMDVWGQGTTVTVSS
VL: not shown
notes: Tested as an scFv on M13 phage (supernatant or phage prep)
- binding result [1]: no binding

B4: B031_P1_PH2A11 monoclonal phage prep (scFv displayed on phage) (scFv, V domains shown)
VH: EVQLLESGGGLVQPGGSLRLSCAASGFTFTSTQMSWVRQAPGKGLEWVSEISGYGGSTYYADSVKGRFTISRDNSKNTLYLQMNSLRAEDTAVYYCAKDTEVSGDAFDIWGQGTMVTVSS
VL: EIVLTQSPGTLSLSPGERATLSCRASQSVDSSNLAWYQQKPGQAPRLLIYGASSRATGIPDRFSGSGSGTDFTLTISRLEPEDFAVYYCQQYRSWPITFGQGTKVEIK
notes: as for B1
- binding result [1]: no binding
- binding result [3]: binds

B5: B031_P1_PH2E4 monoclonal phage prep (scFv displayed on phage) (scFv, V domains shown)
VH: EVQLLESGGGLVQPGGSLRLSCAASGFTFTSYYMSWVRQAPGKGLEWVSGISGSGDSTSYADSVKGRFTISRDNSKNTLYLQMNSLRAEDTAVYYCAREAGGDYDSGAFDIWGQGTMVTVSS
VL: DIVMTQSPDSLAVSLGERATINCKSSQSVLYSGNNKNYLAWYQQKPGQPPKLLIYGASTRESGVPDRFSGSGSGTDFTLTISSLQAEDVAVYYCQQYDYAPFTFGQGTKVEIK
notes: as for B1
- binding result [1]: no binding
- binding result [3]: binds

B6: B10 scFv-Fc fusion, VL-VH orientation (Fc fusion)
chain: DIVMTQSPDSLAVSLGERATINCKSSQSVLDSYNNENNLAWYQQKPGQPPKLLIYWASTRESGVPDRFSGSGSGTDFTLTISSLQAEDVAVYYCQQYTSEPITFGQGTKVEIKGGGGSGGGGSGGGSGGGGSEVQLLESGGGLVQPGGSLRLSCAASGFTFSDYQMSWVRQAPGKGLEWVSGIQGGGGSTYYADSVKGRFTISRDNSKNTLYLQMNSLRAEDTAVYYCAREMWRGDYYSGMDVWGQGTTVTVSS
notes: also called VL-VH-Fc; not shown: Fc region
- Kd [5]: 7 nM
- koff [5]: 0.00206 s⁻¹
- kon [5]: 295000 M⁻¹ s⁻¹

B7: B10 scFv in the VL-VH orientation (scFv)
scFv: DIVMTQSPDSLAVSLGERATINCKSSQSVLDSYNNENNLAWYQQKPGQPPKLLIYWASTRESGVPDRFSGSGSGTDFTLTISSLQAEDVAVYYCQQYTSEPITFGQGTKVEIKGGGGSGGGGSGGGSGGGGSEVQLLESGGGLVQPGGSLRLSCAASGFTFSDYQMSWVRQAPGKGLEWVSGIQGGGGSTYYADSVKGRFTISRDNSKNTLYLQMNSLRAEDTAVYYCAREMWRGDYYSGMDVWGQGTTVTVSS
notes: Soluble scFv; also called VL-VH scFv; 1B10 scFv VL-VH
- Kd [6]: 16 nM
- koff [6]: 0.00952 s⁻¹
- kon [6]: 599000 M⁻¹ s⁻¹

B8: B031_P1_PH2E8 monoclonal phage prep (scFv displayed on phage) (scFv, V domains shown)
VH: EVQLLESGGGLVQPGGSLRLSCAASGFTFSSYAMSWVRQAPGKGLEWVSEIDGEGGYTNYADSVKGRFTISRDNSKNTLYLQMNSLRAEDTAVYYCAREGVDYDILTGYYPYGMDVWGQGTTVTVSS
VL: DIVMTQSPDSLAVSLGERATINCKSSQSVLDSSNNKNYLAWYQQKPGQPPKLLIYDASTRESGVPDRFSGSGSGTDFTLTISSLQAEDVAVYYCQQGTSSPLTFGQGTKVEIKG
notes: as for B1
- binding result [1]: no binding

B9: B10 scFv-Fc fusion, VH-VL orientation (Fc fusion)
chain: EVQLLESGGGLVQPGGSLRLSCAASGFTFSDYQMSWVRQAPGKGLEWVSGIQGGGGSTYYADSVKGRFTISRDNSKNTLYLQMNSLRAEDTAVYYCAREMWRGDYYSGMDVWGQGTTVTVSSGGGGSGGGGSGGGSGGGGSDIVMTQSPDSLAVSLGERATINCKSSQSVLDSYNNENNLAWYQQKPGQPPKLLIYWASTRESGVPDRFSGSGSGTDFTLTISSLQAEDVAVYYCQQYTSEPITFGQGTKVEIK
notes: also called VH-VL-Fc; not shown: Fc region
- Kd [5]: 4.2 nM
- koff [5]: 0.000968 s⁻¹
- kon [5]: 232000 M⁻¹ s⁻¹

B10: B031_P1_PH1C3 monoclonal phage prep (scFv displayed on phage) (scFv, V domains shown)
VH: EVQLLESGGGLVQPGGSLRLSCAASGFTFTSYAMSWVRQAPGKGLEWVSGIDGSGGGTNYADSVKGRFTISRDNSKNTLYLQMNSLRAEDTAVYYCARAYYDILTGYPVDGMDVWGQGTTVTVSS
VL: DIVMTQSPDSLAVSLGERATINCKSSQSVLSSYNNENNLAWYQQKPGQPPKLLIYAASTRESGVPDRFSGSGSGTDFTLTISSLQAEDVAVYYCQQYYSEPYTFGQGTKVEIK
notes: as for B1
- binding result [1]: no binding
